B1: protein H of Streptococcus pyogenes, COOH-terminally truncated fragment expressed by and purified from E. coli (305 amino acids) (other)
chain: EGAKIDWQEEYKKLDEDNAKLVEVVETTSLENEKLKSENEENKKNLDKLSKENQGKLEKLELDYLKKLDHEHKEHQKEQQEQEERQKNQEQLERKYQREVEKRYQEQLQKQQQLETEKQISEASRKSLSRDLEASRAAKKDLEAEHQKLEAEHQKLKEDKQISDASRQGLSRDLEASRAAKKELEANHQKLEAEHQKLKEDKQISDASRQGLSRDLEASRAAKKELEANHQKLEAEAKALKEQLAKQAEELAKLRAGKASDSQTPDTKPGNKAVPGKGQAPQAGTKPNQNKAPMKETKRQLPSTG
notes: 42-346 is the same stretch counted from the first Met of the entry; Depending on the assay, protein H was coupled to CNBr-Sepharose, labelled with 125I (Bolton-Hunter), biotinylated or unlabelled; also called recombinant protein H; soluble protein H

Key:
[1] = biological target: actin from porcine heart (Sigma) (porcine, UniProt B6VNT8 3-377); test: SPR (BIACORE X), protein H over immobilised actin; mean ± SD of three experiments
[2] = biological target: B1; test: Affinity chromatography of the 35S-labelled in vitro translated peptide on protein H-Sepharose, then SDS-PAGE and autoradiography

Row | Binder | Ka [1] [M⁻¹] | Kd [1] [nM] | koff [1] [s⁻¹] | kon [1] [M⁻¹ s⁻¹] | binding result [2]
1 | B1 | 1.7e+06 | 600 | 0.0015 | 2500 | –
2 | COOH-terminal fragment of NPM, in vitro translated and 35S-methionine-labelled (other, 35S-methionine label, domain: COOH-terminal half; also called COOH-terminal peptide; COOH-terminal half of NPM) GSKVPQKKVKLAADEDDDDDDEEDDDEDDDDDDFDDEEAEEKAPVKKSIRDTPAKNAQKSNQNGKDSKPSSTPRSKGQESFKKQEKTPKTPKGPSSVEDIKAKMQASIEKGGSLPKVEAKFINYVKNCFRMTDQEAIQDLWQWRKSL | – | – | – | – | no binding

Source: patent US6833355 (HANSA MEDICAL, dated 2004)
